We go through 3 molecules from patent US9969998B2, “Compositions of adenosine deaminase-2 (ADA2), variants thereof and methods of using same” (Halozyme, Inc., priority 2014, dated 2018).

The nature of series [1]: Heparin binding ELISA (heparin coated microtiter plate). Conditions: single and S265N combination variants (Table 34). The protocol: A 96-well plate was coated with 100 μL of 200 μg/mL heparin sodium salt (Calibochem, EMD Milipore, Billerica, Mass.; Cat. No. 375095) in Na2CO3 buffer (pH 9.6), overnight at 4° C. The wells were blocked with 5% milk in PBS, and washed 6 times with PBS. 3 μM of select rHuADA2 variants (see Table 20), WT rHuADA2 (positive control) and WT rHuADA1 (negative control) were added to the wells individually and incubated for 2 hours at room temperature, followed by washing 6 times with PBS. 100 μL of 1:1000 diluted horseradish peroxidase (HRP)-anti-FLAG antibody (Abcam, Cambridge, UK; Cat. No. Ab1238) was added to the wells to detect binding and incubated at room temperature for 1 hour. The ELISA reactions were developed by adding the 3,3′,5,5′-Tetramethylbenzidine (TMB) substrate solution (Pierce, Thermo Fisher Scientific, Rockford, Ill.) according the manufacturer's instructions and reading the optical density at 450 nm (OD450) on a plate reader.
(In general: An ELISA detects its analyte on a solid surface through an enzyme-linked reagent.)

Series [2] can be described thus: Kinetic assessment of adenosine deaminase activity (ammonia assay, Michaelis-Menten). The format is biochemical. As to conditions: for Km / Vmax / kcat: [E] = 8.5 nM; for kcat: kcat=Vmax/0.0085/60. The method, boiled down:
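Coupled ammonia assay: rHuADA2 WT or variants (1 μg/mL, 17 nM in 2× mix) with adenosine 20 μM–20 mM, α-ketoglutarate, NADPH and GDH, at pH 7.6 or pH 6.5 (PIPES), room temperature. Michaelis-Menten fit gave Km, Vmax, kcat, kcat/Km.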

Series [3] in a line: Thermal stability by differential scanning fluorimetry (DSF). Format: physicochemical. Conditions: 0.1-1 mg/mL protein. As to the method:
The stability of the rHuADA2 WT and variants was measured by differential scanning fluorimetry (DSF) at increasing temperatures. DSF measures conformational stability, which correlates with thermal stability. The melting temperature (Tm) in DSF is defined as the midpoint of the protein unfolding transition.
Non-PEGylated WT rHuADA2, non-PEGylated rHuADA2 variants, and PEGylated forms of WT rHuADA2 and rHuADA2 variants were prepared at concentrations of 0.1-1 mg/mL and mixed with the ROX™ protein thermal shift dye (Applied Biosystems, Carlsbad, Calif.; Cat. No. 4461146) to a final dye concentration that corresponds to a 125-fold dilution of the stock ROX™ solution. Protein samples were then loaded into 96-well plate at a volume of 20 μL/well in triplicate. A ViiA7 RT-PCR System (Applied Biosystems, Carlsbad, Calif.) was used to measure the shift in fluorescence as the temperature of the samples were increased. The reactions were subjected to the following steps: incubation at 25° C. for 2 min; ramping of temperature from 25 to 99° C. at a rate of 0.05° C. per second; followed by a 99° C. incubation for 2 min. The wavelengths used for emission and excitation were 623 nanometers (nm) and 580 nm, respectively.
A general note: In DSF a fluorescence change marks the thermal transition of the protein.

Series [4] is described as follows: Spectrophotometric adenosine deaminase assay at varying pH (pH optimum). The format is biochemical. The protocol: Adenosine deaminase activity of rHuADA2 and variants at varying pH were assessed to determine the pH optimum of each. The adenosine deaminase activity was determined spectrophotometrically by direct measurement of changes in adenosine absorbance. […] During the deamination reaction, the absorbance of ADO decreases while that of INO increases with time. Since the dynamic changes in absorbance make it difficult to monitor activity at a single wavelength, the relative ADO activity was determined as a ratio of the ADO peak to isobestic point (i.e. the wavelength where ADO and INO have the same extinction coefficient). The isobestic point, which is 253 nm, remains unchanged and is concentration independent, so that it is the reference point to correct for volume or intensity discrepancies.
To construct the standard curve for ADO and INO, a series of solution mixtures in 0.001% Tween-20 containing different concentrations of ADO and INO were prepared. The total concentration of ADO and INO mix was 50 μM, in 1×PBS (10 mM phosphate, 137 mM NaCl, 2.7 mM KCl), pH 7.4. The samples were scanned with the wavelengths between 220 nm and 300 nm to determine the isosbestic point, where all spectra cross.
For performing the spectrophotometric adenosine deaminase assay of ADA2 and variants, a 2× solution containing 10 mM ADO in 100 mM potassium phosphate buffer (KPB), 0.1% Tween-20 at different pHs (i.e. 5.5, 6, 6.5, 6.75, 7, 7.25, 7.4, 7.75 and 8) were prepared. A separate 2× solution containing 2 μg/mL WT rHuADA2 or variants were prepared in the same 100 mM potassium phosphate buffer (KPB), 0.1% Tween-20 at the respective pH (i.e. 5.5, 6, 6.5, 6.75, 7, 7.25, 7.4, 7.75 and 8). An equal volume of the ADO solution and the ADA2 solution (wildtype or variants) were mixed to initiate reaction. At each time point (i.e. 1, 3, 5, 7, 9, 11, 13 and 15 min), a small aliquot (4 μl) was removed and diluted 50 times by adding to 196 μl 1×PBS, pH 7.4. The diluted samples were further diluted 2 fold (in duplicates) by adding 85 μl samples to 85 μl 1×PBS in a UV-transparent half area plate. The absorbance at 253 nm and 261 nm were measured of each diluted sample.
Adenosine concentration was determined using the A261/A253 ratio and the standard curve. Adenosine deaminase activity was measured by negative change in ADO concentration per min×100.

B1: S265N/R23E/K374E: ADA2 combination variant SEQ ID NO:63 (protein)
chain: IDETRAHLLLKEKMMRLGGELVLNTKEELANERLMTLKIAEMKEAMRTLIFPPSMHFFQAKHLIERSQVFNILRMMPKGAALHLHDIGIVTMDWLVRNVTYRPHCHICFTPRGIMQFRFAHPTPRPSEKCSKWILLEDYRKRVQNVTEFDDSLLRNFTLVTQHPEVIYTNQNVVWSKFETIFFTISGLIHYAPVFRDYVFRSMQEFYEDNVLYMEIRARLLPVYELSGEHHDEEWSVKTYQEVAQKFVETHPEFIGIKIIYNDHRSKDVAVIAESIRMAMGLRIKFPTVVAGFDLVGHEDTGHSLHDYKEALMIPAKDGVKLPYFFHAGETDWQGTSIDRNILDALMLNTTRIGHGFALSKHPAVRTYSWEKDIPIEVCPISNQVLKLVSDLRNHPVATLMATGHPMVISSDDPAMFGAKGLSYDFYEVFMGIGGMKADLRTLKQLAMNSIKYSTLLESEKNTFMEIWKKRWDKFIADVATK
modifications: human ADA2 S262N/R20E/K371E, mature numbering
A word on the Km: it is the concentration of substrate that gives half-maximal velocity. By Vmax is commonly meant the top rate of the reaction or transport when substrate is in excess. The kcat is the maximal rate divided by the concentration of active sites. On to B1, for which, in series [1], the “Heparin Binding ELISA Average OD450” value came to 0.93. For the same molecule, the Km in series [2] (pH 6.5) worked out at 1290 µM; in series [2] (pH 7.6), 2870 µM. For the same molecule, the Vmax in series [2] (pH 6.5) was 63.74 µM/min; in series [2] (pH 7.6) it was 82.38 µM/min. Also, the kcat was 124.98 s⁻¹ in series [2] (pH 6.5) and 161.53 s⁻¹ in series [2] (pH 7.6). Further, the “kinetics properties compared to WT” value in series [2] (pH 7.6 and pH 6.5) is reported as “greatest improvements in catalytic activity at pH 6.5”. Further, in series [3], the “Tm, melting temperature by DSF” value was 60.4 °C. For the same molecule, the “Adenosine deaminase activity Δ [ADO]/min × (−100)” value (from here on “Adenosine deaminase activity Δ”) stood at 37.94 in series [4] (pH 5.5); 52.70 in series [4] (pH 6); 66.08 in series [4] (pH 6.5); 67.95 in series [4] (pH 6.75); 74.68 in series [4] (pH 7); 77.81 in series [4] (pH 7.25). Further, the “Adenosine deaminase activity Δ” value in series [4] (pH 7.4) amounted to 67.77; in series [4] (pH 7.75), 35.97; in series [4] (pH 8), 2.04.

B2: S265N/R23E/K374D: ADA2 combination variant SEQ ID NO:62 (protein)
chain: IDETRAHLLLKEKMMRLGGELVLNTKEELANERLMTLKIAEMKEAMRTLIFPPSMHFFQAKHLIERSQVFNILRMMPKGAALHLHDIGIVTMDWLVRNVTYRPHCHICFTPRGIMQFRFAHPTPRPSEKCSKWILLEDYRKRVQNVTEFDDSLLRNFTLVTQHPEVIYTNQNVVWSKFETIFFTISGLIHYAPVFRDYVFRSMQEFYEDNVLYMEIRARLLPVYELSGEHHDEEWSVKTYQEVAQKFVETHPEFIGIKIIYNDHRSKDVAVIAESIRMAMGLRIKFPTVVAGFDLVGHEDTGHSLHDYKEALMIPAKDGVKLPYFFHAGETDWQGTSIDRNILDALMLNTTRIGHGFALSKHPAVRTYSWDKDIPIEVCPISNQVLKLVSDLRNHPVATLMATGHPMVISSDDPAMFGAKGLSYDFYEVFMGIGGMKADLRTLKQLAMNSIKYSTLLESEKNTFMEIWKKRWDKFIADVATK
modifications: human ADA2 S262N/R20E/K371D, mature numbering
For the molecule B2, in series [1], the “Heparin Binding ELISA Average OD450” value worked out at 0.69. The Km in series [2] (pH 6.5) came to 1500 µM; in series [2] (pH 7.6) it was 3130 µM. Further, the Vmax came out at 43.42 µM/min in series [2] (pH 6.5) and 72.78 µM/min in series [2] (pH 7.6). Also, the kcat in series [2] (pH 6.5) amounted to 85.14 s⁻¹; in series [2] (pH 7.6) it was 142.71 s⁻¹. The “Tm, melting temperature by DSF” value in series [3] stood at 59.8 °C. Moreover, the “Adenosine deaminase activity Δ” value in series [4] (pH 5.5) turned out to be 20.27; in series [4] (pH 6), 28.16; in series [4] (pH 6.5), 35.51; in series [4] (pH 6.75) it was 33.24; in series [4] (pH 7), 40.08; in series [4] (pH 7.25), 42.28. Besides, the “Adenosine deaminase activity Δ” value in series [4] (pH 7.4) was 34.66; in series [4] (pH 7.75), 18.46; in series [4] (pH 8), 4.94.

B3: S265N/K374D: ADA2 combination variant SEQ ID NO:59 (protein)
chain: IDETRAHLLLKEKMMRLGGRLVLNTKEELANERLMTLKIAEMKEAMRTLIFPPSMHFFQAKHLIERSQVFNILRMMPKGAALHLHDIGIVTMDWLVRNVTYRPHCHICFTPRGIMQFRFAHPTPRPSEKCSKWILLEDYRKRVQNVTEFDDSLLRNFTLVTQHPEVIYTNQNVVWSKFETIFFTISGLIHYAPVFRDYVFRSMQEFYEDNVLYMEIRARLLPVYELSGEHHDEEWSVKTYQEVAQKFVETHPEFIGIKIIYNDHRSKDVAVIAESIRMAMGLRIKFPTVVAGFDLVGHEDTGHSLHDYKEALMIPAKDGVKLPYFFHAGETDWQGTSIDRNILDALMLNTTRIGHGFALSKHPAVRTYSWDKDIPIEVCPISNQVLKLVSDLRNHPVATLMATGHPMVISSDDPAMFGAKGLSYDFYEVFMGIGGMKADLRTLKQLAMNSIKYSTLLESEKNTFMEIWKKRWDKFIADVATK
modifications: human ADA2 S262N/K371D, mature numbering
As to B3, the “Heparin Binding ELISA Average OD450” value in series [1] turned out to be 0.92. In addition, the Km amounted to 1510 µM in series [2] (pH 6.5) and 2860 µM in series [2] (pH 7.6). Also, the Vmax in series [2] (pH 6.5) came to 43.85 µM/min; in series [2] (pH 7.6), 78.29 µM/min. In addition, the kcat was 85.98 s⁻¹ in series [2] (pH 6.5) and 153.51 s⁻¹ in series [2] (pH 7.6). The “Tm, melting temperature by DSF” value in series [3] was 60.8 °C. Also, the “Adenosine deaminase activity Δ” value in series [4] (pH 5.5) worked out at 22.89; in series [4] (pH 6), 33.51; in series [4] (pH 6.5), 39.06; in series [4] (pH 6.75), 41.58; in series [4] (pH 7) it was 45.98; in series [4] (pH 7.25) it was 42.69. In addition, the figures for the “Adenosine deaminase activity Δ” value in series [4] (pH 7.4), in series [4] (pH 7.75) and in series [4] (pH 8) were 43.37, 22.29 and 4.36, respectively.
